In US20130177572A1 one finds Kd, koff and kon data, which are given here for 1 molecule.

In general, Kd refers to the constant that tells how readily two partners part at equilibrium. A higher Kd goes with a looser complex. By koff is commonly meant a measure of how fast the partners let go of each other. Lower therefore signals slow dissociation. The term kon denotes a measure of how fast the partners come together.

One assay addresses human PDGFRβ (human) (UniProt P09619). Nature of the assay: solution equilibrium binding: 35S-Met labelled in vitro translated protein, human PDGFRβ titrated (0 to 20 nM), capture on protein A beads, scintillation counts.
In assay [1] the target is human PDGFR-hIgG1-Fc chimeric fusion protein (human) (UniProt P09619). Nature of the assay: SPR (Biacore T100), PDGFR-Fc captured by anti-hIgG1 Fc, 1:1 model. (In general: Surface plasmon resonance follows binding to a sensor surface in real time, without labels.)
Chain of human PDGFR-hIgG1-Fc chimeric fusion protein (human) (P09619 33-530 limits assumed, stated change not applied): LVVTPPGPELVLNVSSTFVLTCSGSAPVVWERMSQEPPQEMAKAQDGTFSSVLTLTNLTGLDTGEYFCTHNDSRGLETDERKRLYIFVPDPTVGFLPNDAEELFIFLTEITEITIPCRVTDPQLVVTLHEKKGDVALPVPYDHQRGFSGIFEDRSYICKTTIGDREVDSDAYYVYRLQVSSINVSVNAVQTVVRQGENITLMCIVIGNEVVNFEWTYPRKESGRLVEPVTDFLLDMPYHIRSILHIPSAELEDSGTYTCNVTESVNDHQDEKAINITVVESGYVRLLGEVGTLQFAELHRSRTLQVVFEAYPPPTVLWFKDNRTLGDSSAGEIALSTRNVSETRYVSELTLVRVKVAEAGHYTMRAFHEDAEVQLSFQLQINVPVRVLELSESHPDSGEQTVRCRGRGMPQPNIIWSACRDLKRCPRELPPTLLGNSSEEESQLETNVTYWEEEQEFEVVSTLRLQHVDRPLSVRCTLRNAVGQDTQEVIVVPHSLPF

Chain of human PDGFRβ (human) (P09619 33-530 limits assumed): as the sequence (P09619 33-530 limits assumed, stated change not applied) above

B1: XB2202/A4 scFv (scFv, part only; not given: Linker, domain order and tag, V domains shown, not shown: another chain or arm of the molecule; small tags and cut ends)
VH: QVQLVQSGAEVKKPGSSVRVSCKASGGTFSRHAISWVRQAPGQGLEWIGGILPILKTPNYAQRFQGRVTINADESTSTVYMEMSSLRSEDTAVYYCATHGGDRSYWGQGTLVTVSS
VL: DVVMTQSPSSLSASVGDRVTITCQASQDISNWLNWYQQKPGKAPKLLIYEASNLETGVPSRFSGSGSGTDFTFTISSLQPEDIATYYCQQYNNVLRTFGQGTKVEIK
For B1, in the assay with human PDGFRβ (human), the Kd is 0.03 nM. Also, in assay [1], the Kd is 2.18 nM, the koff came to 0.00154 s⁻¹ and the kon came to 706000 M⁻¹ s⁻¹.
